Measured values from the supplement of paper PMC10567573.

B1: TFE3 (parent)
chain: FPSDHLGDLGDPFHLGLEDILMEE

Variants of: B1
Test: protein stability index of a GFP-peptide fusion (GPS, HEK-293T) (PSI 1-6); higher = more stable
Details: c terminus: a fixed tail appended
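Also: lentivirally expressed fusions sorted by FACS into six bins by GFP to DsRed ratio, PSI derived from sequencing read proportions per bin multiplied by bin number.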

| Variant | protein stability index |
| --- | --- |
| L9T | 3.79 |
| L9V | 3.48 |
| L9W | 2.19 |
| L9Y | 3.29 |
| G10A | 3.41 |
| G10C | 2.93 |
| G10D | 3.37 |
| G10E | 3.67 |
| G10F | 2.54 |
| G10H | 2.95 |
| G10I | 3.04 |
| G10K | 3.14 |
| G10L | 3.05 |
| G10M | 3.33 |
| G10N | 2.97 |
| G10P | 3.47 |
| G10Q | 3.05 |
| G10R | 3.3 |
| G10S | 3.15 |
| G10T | 3.46 |
| G10V | 3.63 |
| G10W | 2.76 |
| G10Y | 2.21 |
| D11A | 3.23 |

| Variant | protein stability index |
| --- | --- |
| D11C | 2.74 |
| D11E | 4.24 |
| D11F | 2.66 |
| D11G | 3.52 |
| D11H | 2.27 |
| D11I | 3.23 |
| D11K | 3.42 |
| D11L | 2.89 |
| D11M | 3.08 |
| D11N | 2.12 |
| D11P | 3.87 |
| D11Q | 4.41 |
| D11R | 3.72 |
| D11S | 2.13 |
| D11T | 2.92 |
| D11V | 3.32 |
| D11W | 1.89 |
| D11Y | 2.67 |
| P12A | 3.11 |
| P12C | 3.62 |
| P12D | 4.35 |
| P12E | 4.15 |
| P12F | 4.01 |
| P12G | 4.1 |

| Variant | protein stability index |
| --- | --- |
| P12H | 3.98 |
| P12I | 3.23 |
| P12K | 4.02 |
| P12L | 2.81 |
| P12M | 3.46 |
| P12N | 4.3 |
| P12Q | 4.29 |
| P12R | 4.1 |
| P12S | 4.84 |
| P12T | 4.24 |
| P12V | 3.5 |
| P12W | 2.71 |
| P12Y | 3.4 |
| F13A | 4.62 |
| F13C | 4.62 |
| F13D | 5.22 |
| F13E | 5.21 |
| F13G | 4.97 |
| F13H | 5.09 |
| F13I | 4.34 |
| F13K | 4.89 |
| F13L | 4.25 |
| F13M | 4.7 |
| F13N | 4.97 |

| Variant | protein stability index |
| --- | --- |
| F13P | 4.91 |
| F13Q | 4.61 |
| F13R | 4.74 |
| F13S | 4.87 |
| F13T | 4.93 |
| F13V | 4.89 |
| F13W | 1.76 |
| F13Y | 2.82 |
| H14A | 4 |
| H14C | 2.66 |
| H14D | 4.61 |
| H14E | 4.36 |
| H14F | 3.09 |
| H14G | 4.14 |
| H14I | 3.44 |
| H14K | 3.7 |
| H14L | 3.38 |
| H14M | 3.74 |
| H14N | 3.67 |
| H14P | 4.66 |
| H14Q | 4.09 |
| H14R | 3.52 |
| H14S | 4.25 |
| H14T | 3.64 |

| Variant | protein stability index |
| --- | --- |
| H14V | 3.04 |
| H14W | 2.27 |
| H14Y | 3.32 |
| L15A | 4.29 |
| L15C | 3.31 |
| L15D | 4.45 |
| L15E | 4.21 |
| L15F | 3.36 |
| L15G | 3.63 |
| L15H | 3.93 |
| L15I | 3.05 |
| L15K | 3.1 |
| L15M | 3.35 |
| L15N | 3.77 |
| L15P | 3.7 |
| L15Q | 3.87 |
| L15R | 3.61 |
| L15S | 3.67 |
| L15T | 3.85 |
| L15V | 3.24 |
| L15W | 3.49 |
| L15Y | 3.56 |
| G16A | 3.58 |
| G16C | 2.7 |

| Variant | protein stability index |
| --- | --- |
| G16D | 3.59 |
| G16E | 3.96 |
| G16F | 2.16 |
| G16H | 3.25 |
| G16I | 2.31 |
| G16K | 3.3 |
| G16L | 2.4 |
| G16M | 3.51 |
| G16N | 3.34 |
| G16P | 3.35 |
| G16Q | 3.6 |
| G16R | 2.7 |
| G16S | 3.26 |
| G16T | 3.1 |
| G16V | 2.67 |
| G16W | 1.85 |
| G16Y | 2.68 |
| L17A | 3.92 |
| L17C | 3.5 |
| L17D | 4.5 |
| L17E | 4.11 |
| L17F | 3.1 |
| L17G | 3.7 |
| L17H | 4.29 |

| Variant | protein stability index |
| --- | --- |
| L17I | 3.22 |
| L17K | 3.53 |
| L17M | 2.91 |
| L17N | 4.21 |
| L17P | 3.67 |
| L17Q | 3.55 |
| L17R | 3.55 |
| L17S | 3.86 |
| L17T | 3.47 |
| L17V | 3.09 |
| L17W | 3.19 |
| L17Y | 3.46 |
| E18A | 2.7 |
| E18C | 2.18 |
| E18D | 3.87 |
| E18F | 1.91 |
| E18G | 2.86 |
| E18H | 2.72 |
| E18I | 2.01 |
| E18K | 2.85 |
| E18L | 1.98 |
| E18M | 2.62 |
| E18N | 3.12 |
